# Measured values published in patent publication US20160362487A1 (Regeneron, published 2016).
# Positions count from the first letter of the chain named. Numbers in names are those of the source.
# B1: H4H9629P (antibody, human IgG4, V domains shown)
# VH: EVQLVESGGGLVQPGGSLRLSCAASGFTFRSFAMSWVRQAPGKGLELVSDLRTSGGSTYYADSVKGRLTISRDNSKNTLYLQMNSLRAEDTAVYYCAKSHYSTSWFGGFDYWGQGTLVTVSS
# VL: DIQMTQSPSSVSASVGDRVTITCRASQGFSSWLAWYQQKPGKAPKLLIYAASSLQSGVPSRFSGSGSGTDFTLTITNLQPEDFATYYCQQANSFPLTFGGGTKVEIK
# notes: Human IgG4 Fc (H4H)
# B2: H4H9662P (antibody, V domains shown)
# VH: EVQLVESGGGLVQPGGSLRLSCAASGFTFSSYALTWVRQAPGKGLEWVSFISGSGGRPFYADSVKGRFTISRDNSKNMLYLQMNSLRAEDTAIYYCAKSLYTTSWYGGFDSWGQGTLVTVSS
# VL: B1 VL with F29V, S30V, T76S, N77S, A91S, L96F, F98L, G100P, E105D
# notes: Human IgG4 Fc (H4H)
# B3: H4H9659P (antibody, human IgG4, V domains shown)
# VH: QVQLVQSGAEVKKPGASVKVSCKASGYTFNSYGISWVRQAPGQGLEWMGWISSHNGNSHYVQKFQGRVSMTTDTSTSTAYMELRSLRSDDTAVYYCARHSYTTSWYGGFDYWGQGTLVTVSS
# VL: B1 VL with K45Q, T69S, T76S, N77S
# notes: Human IgG4 Fc (H4H)
# B4: H4H9660P (antibody, human IgG4, V domains shown)
# VH: EVQLVESGGGLVQPGGSLRLSCAASGITLSSYGMSWVRQAPGKGLEWVASIFGSGGGPYYADSVKGRFTMSRDNSKNTLYLQMNSLRAEDTAVYYCAKDRYSGSYYGGFDYWGRGTLVTVSS
# VL: B1 VL with F29I, S30T, K45T, S56T, T76S, N77S, D82H, L96P
# notes: Human IgG4 Fc (H4H)
# B5: H4H9633P (antibody, human IgG4, V domains shown)
# VH: EVQLVESGGGLVQPGGSLRLSCAASGFTFSSYVMSWVRQAPGKGLEWVSSISGNGGSTNYADSVKGRFTISRDNSKNTLFLEMNSLRAEDTAVYYCAKSLGTTTTFLGFDYWGQGTLVTVSS
# VL: B1 VL with F29I, D70Y, T76S, N77S
# notes: Human IgG4 Fc (H4H)
# B6: H1M9565N (antibody, mouse IgG1, V domains shown)
# VH: QVTLKESGPVLVKPTESLTLTCSVSGFSLSNVRMGVSWIRQSPGKALEWLAHIFSNDEKSYTTSLKTRLTISKDTSRSQVVLTMTDMDPGDTATYYCARIRNLAFNYWGQGTLVTVSS
# VL: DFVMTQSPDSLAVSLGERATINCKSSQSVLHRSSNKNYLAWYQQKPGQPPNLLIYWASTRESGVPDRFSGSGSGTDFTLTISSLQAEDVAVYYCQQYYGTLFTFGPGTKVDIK
# notes: Human variable domains, mouse IgG1 Fc (H1M)
# B7: H1M9566N (antibody, mouse IgG1, V domains shown)
# VH: EVQLLESGGDLVQPGGSLRLSCAASGFTFSSYAMSWVRQAPGKGLEWVSVISGSGSSTDYADSVKGRFTISRDNSRDTLHLQMNSLRAEDTAVYYCAKTFYYFYGLDVWGQGTTVTVSS
# VL: DIQMTQSPSSLSASLRDRVTITCRASQGISNYLAWYQQKPGKVPKVLIYAASTLQSGVPSRFSGSGSGTVFTLTISSLQTEDVATYYCQKYSSAPFTFGPGTKVDIK
# notes: as for B6
# B8: H4H9640P (antibody, human IgG4, V domains shown)
# VH: QVQLQESGPGLVKPSETLSLTCTVSGGSISSYYWSWIRQPPGKGLELIGYIYYSGSTNYNPSLKSRVTISVDTSKNHFSLKLSSVTAADTAVYYCARSQYTSSWYGSFDIWGQGTMVTVSS
# VL: DIQMTQSPSSVSASVGDRVTITCRASQGISTWLAWFQQKPGKAPKLLIYAASTLQGGVPSRFSGSGSGPEFTLTISSLQPEDFATYYCQQANSFPWTFGQGTKVEIK
# notes: Human IgG4 Fc (H4H)
# B9: H1M9568N (antibody, mouse IgG1, V domains shown)
# VH: QVLLVQSGAEVKKPGATVKVSCKASGSTFTGYYMHWVRQAPGQGLEWMGWINPNNGGTNYAQKFQGRVTMTRDTSISTAYMELSRLRSDDTAVYYCARELRYNWKSWGQGTLVTVSS
# VL: EIVLTQSPGTLSLSPGERVTLSCRASQSVGRPYLAWYQQIPGQAPRLLIYGASSRATDIPDRFSGNGSGTDFTLTISRLEPEDFAVYYCQQYDNSPYTFGQGTRLEIK
# notes: as for B6
# Molecular target: T1, human IL-33 (R&D Systems, #3625-IL-010/CF) (human, UniProt O95760 112-270)
# T1 sequence (looked up): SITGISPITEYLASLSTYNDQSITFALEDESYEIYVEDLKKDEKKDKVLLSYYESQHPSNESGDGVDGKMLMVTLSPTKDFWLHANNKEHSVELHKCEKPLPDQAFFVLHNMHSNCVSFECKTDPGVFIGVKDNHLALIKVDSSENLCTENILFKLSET
# Test: cell-based or functional assay
row,Binder,"IC50, inhibition of 10 pM hIL-33 activation of HEK293/hST2/NFkB-luciferase cells [M]"
1,B1,1.3e-11
2,B2,2e-11
3,B3,4.7e-11
4,B4,3.5e-11
5,B5,2.2e-10
6,B6,2.9e-08
7,B7,9.5e-10
8,B8,3e-11
9,B9,2.5e-10

# Molecular target: T2, cynomolgus monkey IL-33 expressed with a C-terminal hexahistidine tag (cynomolgus monkey)
# T2 chain: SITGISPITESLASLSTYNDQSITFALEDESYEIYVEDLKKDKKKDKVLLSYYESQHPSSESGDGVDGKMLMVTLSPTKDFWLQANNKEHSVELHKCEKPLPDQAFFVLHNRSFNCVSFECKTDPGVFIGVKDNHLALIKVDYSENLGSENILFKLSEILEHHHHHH
# Test: cell-based or functional assay
row,Binder,"IC50, inhibition of 5 pM MfIL-33-6His activation of HEK293/hST2/NFkB-luciferase cells [M]"
1,B1,5.5e-08
2,B2,1.5e-09
3,B3,3.3e-09
4,B4,1.9e-08
5,B5,1.3e-07
6,B6,1.7e-08
7,B7,1.5e-09
8,B8,1.4e-08
9,B9,3.5e-09

# Molecular target: T2, cynomolgus monkey IL-33 expressed with …
# Test: BLI; mAb-1 on captured MfIL-33-6His
# Experimental: Binding competition between a panel of different anti-IL-33 monoclonal antibodies was determined using a real time, label-free bio-layer interferometry assay on an Octet® HTX biosensor (ForteBio, A Division of Pall Life Sciences). The experiment was performed at 25° C. using a buffer of 0.01M HEPES pH7.4, 0.15M NaCl, 3 mM EDTA, 0.05% v/v Surfactant Tween-20, and 0.1 mg/ml BSA (HBS-ET kinetics buffer) with the plate shaking at a speed of 1000 rpm. […] The antigen-captured biosensors were then saturated with a first anti-IL-33 monoclonal antibody (subsequently referred to as mAb-1) by immersion into wells containing 50 μg/mL solution of mAb-1 for 5 minutes. The biosensors were then dipped into wells containing a 50 μg/mL solution of a second anti-IL-33 monoclonal antibody (subsequently referred to as mAb-2) for 4 minutes. The biosensors were washed in HBS-ET kinetics buffer in between every step of the experiment. The real-time binding response was monitored during the experiment, and the maximum binding response for each binding step was recorded. The response of mAb-2 binding to MfIL-33-6His pre-complexed with mAb-1 was measured, and competitive/non-competitive behavior of different anti-IL-33 monoclonal antibodies with respect to each other was determined.
row,Binder,mAb-1 Binding (nm)
1,B1,0.72
2,B2,0.56
3,B3,0.56
4,B4,0.58
5,B5,0.64
6,B6,0.46
7,B7,0.58
8,B8,0.61
9,B9,0.5

# Molecular target: T3, biotinylated hIL-33 protein (R&D systems, Cat #3625-IL/CF) (human, UniProt O95760 112-270, biotinylated (sites not given))
# T3 construct: Same commercial protein as m21, biotin-labelled; also called biotin-hIL-33
# T3 sequence (looked up): T1 sequence (looked up)
# Test: competition ELISA, 30 pM biotin-hIL-33 on coated hST2-hFc
# Experimental: The ability of anti-IL-33 antibodies to block either human IL-33 (hIL-33) or cynomologus monkey IL-33 binding to the human ST2 receptor was measured using a competition sandwich ELISA. […] The antibody/IL-33 mixtures were incubated for 1 hour at room temperature before they were transferred to the hST2-hFc-coated microtiter plates. After incubating for 1 hour at room temperature, the wells were then washed, and plate-bound biotin-hIL-33 was detected with streptavidin conjugated with horse-radish peroxidase (HRP) (Thermo Scientific, Cat # N200), and plate-bound MfIL-33-6His was detected with a HRP conjugated anti-His monoclonal antibody (Qiagen, #34460). All samples were developed with a TMB solution (BD biosciences, #51-2607KC) to produce a colorimetric reaction and then quenched by acidification with 1M sulfuric acid before measuring absorbance at 450 nm on a Victor X5 plate reader. Data analysis was performed using a sigmoidal dose-response model within Prism™ software. […] Percent blockade was calculated as the ratio of the reduction in signal observed in the presence of antibody relative to the difference between the signal with IL-33 alone and background (signal from HRP-conjugated secondary antibody or streptavidin alone). The absorbance measured for the constant concentration of biotin-hIL-33 or MfIL-33-6His alone is defined as 0% blocking and the absorbance measured for no added IL-33 is defined as 100% blocking.
Binder,% Maximum blocking [%],IC50 [nM]
B1,80,0.45
B2,77,1
B3,78,0.4
B4,57,0.31
B5,66,0.44
B6,68,22
B7,69,0.32
B8,78,0.35
B9,55,0.19

# Molecular target: T1, human IL-33 (R&D Systems, …)
# Test: BLI; hIL-33 pre-mixed with mAb-2 Isotype control 1
# Experimental: Binding competition between a panel of different anti-IL-33 monoclonal antibodies was determined using a real time, label-free bio-layer interferometry assay on an Octet® HTX biosensor (ForteBio, A Division of Pall Life Sciences). The experiment was performed at 25° C. using a buffer of 0.01M HEPES pH7.4, 0.15M NaCl, 0.05% v/v Surfactant Tween-20, and 0.1 mg/ml BSA (HBS-ET kinetics buffer) with the plate shaking at a speed of 1000 rpm. To assess whether two antibodies were able to compete with one another for binding to human IL-33, a pre-mix assay format was used where 100 nM of human IL-33 (R&D Systems; #3625-IL-010/CF) was pre-mixed with 500 nM of different anti-IL-33 monoclonal antibodies (subsequently referred to as mAb-2) for at least 2 hours prior to running the binding competition assay. […] Following the capture step, unoccupied anti-mouse Fc polyclonal antibody and anti-human Fc polyclonal antibody on the Octet biosensors were saturated by submerging them for 4 minutes into wells containing 200 μg/mL of a non-specific monoclonal antibody with a mouse Fc or with a human Fc, respectively. Finally, the Octet biosensors were immersed for 4 minutes into wells containing the pre-mixed samples of 100 nM of human IL-33 and 500 nM of mAb-2. At the end of each cycle, the non-covalently captured anti-IL-33 antibodies along with the bound pre-complex of human IL-33 and mAb-2 were removed from the biosensors using three alternate 20 second immersions into 10 mM HCl followed by submerging into HBS-ET kinetics buffer. The biosensors were washed in HBS-ET kinetics buffer in between every step of the experiment. The real-time binding response was monitored during the binding events, and the binding response (in units of nm) at the end of every step was recorded.
row,Binder,mAb-1 Binding to the Pre-complex of mAb-2 & hIL-33 [nm]
1,B1,0.22
2,B2,0.19
3,B3,0.17
4,B4,0.21
5,B5,0.21
6,B6,-0.01
7,B7,0.06
8,B8,0.18
9,B9,0.05
